Values quoted from earlier work, collected in paper PMC2875293.

Target: Sep15 (Homo sapiens) (UniProt O60613)
Sequence (O60613 32-165): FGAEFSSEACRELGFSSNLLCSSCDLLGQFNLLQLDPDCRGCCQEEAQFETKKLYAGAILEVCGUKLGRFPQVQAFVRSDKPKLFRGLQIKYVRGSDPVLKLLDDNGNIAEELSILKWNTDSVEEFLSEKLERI

Sequence of GT1 (UDP-glucose:glycoprotein glucosyltransferase 1) (Q9NYU2 43-1555): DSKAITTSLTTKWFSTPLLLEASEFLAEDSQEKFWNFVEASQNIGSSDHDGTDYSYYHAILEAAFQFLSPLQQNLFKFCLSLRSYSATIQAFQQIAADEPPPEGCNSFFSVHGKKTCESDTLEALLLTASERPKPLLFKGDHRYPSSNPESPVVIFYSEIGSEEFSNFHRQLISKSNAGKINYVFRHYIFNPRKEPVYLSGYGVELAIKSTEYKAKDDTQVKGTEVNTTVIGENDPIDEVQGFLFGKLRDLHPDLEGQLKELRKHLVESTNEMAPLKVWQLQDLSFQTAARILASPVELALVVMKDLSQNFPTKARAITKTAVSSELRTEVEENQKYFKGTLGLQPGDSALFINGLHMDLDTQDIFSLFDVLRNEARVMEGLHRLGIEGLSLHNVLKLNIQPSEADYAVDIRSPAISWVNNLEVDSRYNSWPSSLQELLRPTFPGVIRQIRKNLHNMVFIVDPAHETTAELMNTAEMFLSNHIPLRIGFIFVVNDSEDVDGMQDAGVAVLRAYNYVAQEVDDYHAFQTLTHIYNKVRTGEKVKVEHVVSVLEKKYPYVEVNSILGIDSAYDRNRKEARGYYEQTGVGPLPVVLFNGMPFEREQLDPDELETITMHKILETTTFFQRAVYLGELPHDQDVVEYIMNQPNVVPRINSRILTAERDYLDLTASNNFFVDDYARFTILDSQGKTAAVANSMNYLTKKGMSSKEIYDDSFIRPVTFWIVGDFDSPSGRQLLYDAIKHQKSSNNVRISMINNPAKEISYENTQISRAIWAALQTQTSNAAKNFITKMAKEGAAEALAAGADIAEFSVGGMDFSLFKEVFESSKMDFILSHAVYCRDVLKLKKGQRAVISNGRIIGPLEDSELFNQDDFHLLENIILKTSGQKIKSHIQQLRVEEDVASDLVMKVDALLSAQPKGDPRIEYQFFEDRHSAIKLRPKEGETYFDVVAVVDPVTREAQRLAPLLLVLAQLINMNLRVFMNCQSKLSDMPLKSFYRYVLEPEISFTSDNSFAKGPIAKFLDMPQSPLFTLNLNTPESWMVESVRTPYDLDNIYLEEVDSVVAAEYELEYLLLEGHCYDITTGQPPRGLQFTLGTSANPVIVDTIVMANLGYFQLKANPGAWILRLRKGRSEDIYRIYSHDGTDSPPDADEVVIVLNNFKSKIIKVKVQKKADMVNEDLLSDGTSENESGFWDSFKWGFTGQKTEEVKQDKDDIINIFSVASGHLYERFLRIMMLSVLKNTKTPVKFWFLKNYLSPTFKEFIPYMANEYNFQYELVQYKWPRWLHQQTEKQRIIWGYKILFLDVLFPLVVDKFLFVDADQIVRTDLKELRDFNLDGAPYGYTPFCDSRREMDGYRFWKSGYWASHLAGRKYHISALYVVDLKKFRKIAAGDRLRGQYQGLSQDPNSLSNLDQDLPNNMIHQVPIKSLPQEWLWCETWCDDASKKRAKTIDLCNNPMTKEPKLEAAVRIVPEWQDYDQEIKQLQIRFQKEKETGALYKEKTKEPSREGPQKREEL

In the case of “GT1 (UDP-glucose:glycoprotein glucosyltransferase 1) (from UniProt Q9NYU2)”, the Kd is given as < 20 nM.
